Measurements published in the supplement of paper PMC11502859.

Tested on: HEK293T
Experiment: median enrichment of reporter reads in eGFP-reduced (low/intermediate) vs eGFP-high sorted cells (eGFP-extension fusion abundance) (ratio); higher = stronger loss of eGFP-fusion protein abundance (more destabilising extension)
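Further: lentiviral eGFP-IRES-mCherry reporter pool sorted by FACS 96 h post-transduction, gated on mCherry-high cells, Illumina read counts normalized per million, median across four biological replicates.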

Row | Substance | median enrichment
1 | YGPVGPAAVLHPTPLTPASCCK [WDR13] | 6.81
2 | YGRDWHRLAFQHLLSPTLHSLLPCLSNKPNAACEAFFIFLFTLFLMLPTLPFRFFC [RSU1] | 10.2
3 | YGREARAAPAFLLQIWAAVARAVSPVAEPSGRCGNRRSSVAPVS [CPTP] | 7
4 | YGRFY [OR5L1] | 1.25
5 | YGRIMACLSPFLLQIKFSTHSFLLQIKFSTHSFFNTVL [OR2AG2] | 49.9
6 | YGRWEVSSLSLACSSSWT [REG3G] | 6.24
7 | YGSAKSLWDWKSGPGLPDRQPEDLPSTMHHGRGRSMKN [SLC39A14] | 0.591
8 | YGSRRILTHRKGAHGTQVKEVLLARYGGSRL [SMYD4] | 5.15
9 | YGTDGRRGPGTPGMGGPNP [GATA2] | 1.68
10 | YGTKPRRIPPQ [CA10] | 0.595
11 | YGVAQGAPGRGPGPRTL [TMEM38A] | 0.588
12 | YGWGRVAASFVPTGGSHNSFDL [ELP5] | 5.96
13 | YGWWQPGFWPRAPPPD [PHC2] | 2.07
14 | YHAPRLEGRNSRLQNRHEMVWPCDYTL [TRMT44] | 1.98
15 | YHCESITFSLSCSWTFCTENPGI [CREBBP] | 33.7
16 | YHH [FAM229B] | 0.611
17 | YHPGL [GORASP1] | 0.424
18 | YHPHSSSSPPNRLGSRGLLCKPTGQLWLRAHLLQRVPQPLLNLDFCPNPLPVTRSISLSLLSNGAWSTEASEAIALLAEVKRT [SLC18A3] | 4.57
19 | YHPSG [FAM183A] | 0.527
20 | YHQNLCQNTKECA [TLL1] | 0.773
21 | YHRPVPGATWGPCGGKPFPPPRGDAQPPSGPPFGHHQVPKVPQEASTLHARPASISLSFPVWPSFEGHVRWRSQARQTLTRGL [PLPP7] | 8.18
22 | YIAD [FUCA2] | 0.607
23 | YICLASPPSVFSTQRRREPAVPCRREEGLLDPRLSPSALRTPCPDSLLMVGPLCSSLPVGSLSSLTWIRFGFSTSLPQRKDYS [KRT13] | 6.15
24 | YIFYSHSVVQSSALGIYLCSQRSNSHLLYCLCLKEFESFLIFIIHLRTRDPCLAVWSKADYAAWRQDSDRASERAKSCQKETE [GABRA1] | 10.4
25 | YIIHCIFYFYHILHIQQNLYVVIGII [ELMOD2] | 7.8
26 | YILDLFYFLWSKFWCD [MIER1] | 7.56

Row | Substance | median enrichment
27 | YILKTQPSSKRHAPPHSPGPGRGGCSS [ADORA1] | 2.57
28 | YILLADHYCGLKDDHLV [WFDC9] | 7.3
29 | YILLKVF [LY75] | 4.38
30 | YILNLVCRPSRGIKRLALVVKNKADSQTRSDFCPCSSFDVLSVALFLIASSTCKMLFTFCLG [DAB2] | 7.19
31 | YILPEDKEKSKYCIGT [IRAK3] | 9.91
32 | YILYNCEINLR [OR4F4] | 5.6
33 | YIMDWDILYFSC [UBA5] | 13
34 | YIMRHTV [TBC1D32] | 5.87
35 | YIMYYPDLVGKVLS [OPRM1] | 11.7
36 | YINEENKRS [CLEC7A] | 0.716
37 | YINKIRRGSETEKEKAKDWFVCLISFC [NR2F2] | 9.01
38 | YIPNILGL [RASEF] | 10.1
39 | YIPVSIQKSNKKFSVKCAILLCVL [RPL11] | 0.764
40 | YIRRHH [IFITM2] | 9.67
41 | YISHQKLRQEKQK [RASSF8] | 3.3
42 | YISHVNLPER [MSMO1] | 15.7
43 | YISLFVSMRCPTGPI [CADM1] | 15.7
44 | YISTLFLKLTFQCH [GPNMB] | 7.14
45 | YIWLFMHCGMCSSFSVFRYKVLYQSVIYKVYQHKCW [MLH1] | 23.5
46 | YKCEECGKAFKWSSHLTIH [ZNF93] | 6.32
47 | YKCGKAFTKSSYCVQHLKFNTEQMQYKCNDSGRTFIILEGL [ZNF736] | 22.3
48 | YKE [DCAF17] | 0.608
49 | YKGAEEGWSGWAGGPTSSPQHLPPTQLGQRGQDVCLPLRDRCLCPHTATGV [SEMA3G] | 2.63
50 | YKGRAQQCK [IRX2] | 0.955
51 | YKHESFIHTFRQAREVQQVTAKGGNCSHLPPILPAENPDCIQCPQCSHHFAPKVAEQHIPKCKTIKNCLPPLRKHYS [ZC2HC1C] | 0.72
52 | YKISPLPACCKVT [CAMKK2] | 11.5

Row | Substance | median enrichment
53 | YKKEKKAKKKK [IQCA1] | 0.422
54 | YKKRCCLGLVGGACFS [HIGD1A] | 3.33
55 | YKKRLLLGLDR [Degron FEM1B] | 9.09
56 | YKKVGTMRGRGL [Degron APPBP2] | 16.9
57 | YKL [OR6C2] | 0.678
58 | YKLGLCFLLVTEDWVAP [SOAT1] | 9.15
59 | YKLLKRFICVLLTRFFLFVACFGN [SKIL] | 9.42
60 | YKLVLCSG [ZDBF2] | 6.14
61 | YKMIVLTPYTNVLLLALIKLLEG [MAX] | 15.5
62 | YKNQNGLR [ADGRB3] | 0.651
63 | YKP [ATP6V1A] | 0.175
64 | YKPGGSSHSCSQGHWARAAHAQEARFEGICEAAACCCTCAFSLPLPSLSSHGGVRSCPCSESTFPAIPGAGGACASAIPCDQA [TSSK6] | 3.81
65 | YKPQAPLADGRQGEKRRSSWTSETTVELRREAT [IGFL3] | 1.72
66 | YKPRDGGCLAMAGR [DMRTC2] | 0.676
67 | YKRFNFQ [IGSF6] | 1.72
68 | YKRIS [KCNN2] | 1.05
69 | YKRPWSGPTLRPSISQALSAVIPRTQWAPCTPVSGAVRLGYIVNSASTERLALRASSESSSSGTPPKPTPPGTPLSGIPAKRR [PRRT1] | 1.15
70 | YKRSLADPSL [KCNQ3] | 0.769
71 | YKSDCSVRIYIYRFQSNKWGNR [CCNG2] | 4.91
72 | YKSKNIFLKVMMHSFGW [CENPW] | 4.27
73 | YKTPCSAILISYR [APOO] | 4.54
74 | YKVPLANCLEAQHNPKALFR [HIST1H1E] | 6.29
75 | YKWQQNLTPRPANSASLVTLFWLLDGFHSSLGFVCEYCLLCFVFNCNG [OR7E24] | 6.78
76 | YKYTLTERDNRQRGSVAEDPLLCLY [TNIP3] | 7.19
77 | YLARPDPLGPFFFADNHCPAASGTSGSQGTQSSLLAVDFPLLLEPPIKEIQRDSCRPEAEHTFMAGALRGVLDPAPGDTIHFY [PLOD1] | 9.08
78 | YLCISRAHTYIVAYSQHGSRPALLI [RANBP9] | 2.61

Row | Substance | median enrichment
79 | YLDHDLVQ [TRAT1] | 0.456
80 | YLDQSKCGLNLLVDQC [SLC25A3] | 13.3
81 | YLEQMETPWGAGSGSPAPSQTLQCQKQQQNETQPPPTTATTRRMIQQVFLKN [GRIA1] | 2.38
82 | YLEYIFV [CEP192] | 4.56
83 | YLFFFFLIEVLVL [FAM160A1] | 25.1
84 | YLICTNMTQMFSKITGKPLTSICVSQLTEKKITCSSFIISHWNII [SENP7] | 3.44
85 | YLISYYIF [PCDHB8] | 5
86 | YLKKTVLSAMTLYIKGVLFC [PLAAT3] | 13.8
87 | YLKNMYPL [ERCC5] | 7.72
88 | YLL [TOR1AIP2] | 3.21
89 | YLLCVVGGGYYLYQPSVCHEPVGKSDIFII [IL1RAP] | 6.77
90 | YLLKYRNLNNVKLD [TJP1] | 4.45
91 | YLRTLPFFPLSSLPLPFLPIYPFPSSKSTQGEENKMTTQDLVAKILHSKSSFV [FGF12] | 9.45
92 | YLSGLSVL [MCOLN3] | 19
93 | YLSNH [WDR27] | 3.24
94 | YLSSAPVVVVVLNFRI [ZSCAN21] | 16.1
95 | YLSVYLSIYLSIYLSIYVYLSCIYTRL [AK9] | 9.52
96 | YLTFPAESVARGKVTIYAEMICLVPILCSTSVFQKFLINKLI [CDCA2] | 4.06
97 | YLTLHLSSGCQGRRRSQQAPLFCSLSPEAEHMFSEKLLLRTF [RAF1] | 6.79
98 | YLTLPIS [OR5AS1] | 15.4
99 | YLVIHAFFPGQGSRVTRPPETSQEARALFK [SNX19] | 13.6
100 | YLYHYSRSSSQHHLLATWDV [GCG] | 12.4
101 | YMCPTDPGTFLPQCCACKYTVKLSLYHFDRGED [GLRA2] | 11.1
102 | YMFVWN [STKLD1] | 6.18
103 | YMHCSGS [STT3B] | 2.33
104 | YMILKPETI [TRIP11] | 4.3

Row | Substance | median enrichment
105 | YMKLDI [ARF4] | 1.7
106 | YMQKWIK [KCNMB2] | 11.9
107 | YMQRPRRAALTTRFIF [EWSR1] | 6.81
108 | YMSEHGLSQACLHGIRLATPARPPGWFFSS [TJP2] | 4.38
109 | YMSEVQTLKKLAF [SLC7A13] | 4.37
110 | YMSF [PPP1CC] | 1.47
111 | YNEK [PJVK] | 0.295
112 | YNFFHLRNYCDL [CHD6] | 19.1
113 | YNIRKKATSMVINGRKAGELDSAVLLTGELWSSAPVYGPCRLVGWQMLA [DPPA4] | 10.4
114 | YNIVYVFCHL [KIAA1586] | 8.8
115 | YNIYKLWVLDGLS [RBM41] | 3.9
116 | YNIYSYDKDT [HCRTR2] | 5.01
117 | YNLIASTLKDKTSNSHLL [KIF9] | 1.28
118 | YNLLLIIISEIISGSPWTTS [ZIC5] | 5.16
119 | YNMTYSYSSLLSPLYSFFFNIFMTFKSLLYSLARKCTFFLLV [ADAMTS12] | 4.84
120 | YNPFALMSLPFVT [SIX2] | 1.36
121 | YNQGSVTPCHAPTVEIPPLLKFFMVVSLPGSLMLS [KCNS1] | 11.7
122 | YNSEVNVLKYNY [TEFM] | 0.662
123 | YNWKLSTHRKRSLLGRWPPQCLEKNLWASTAAREELLQARGRKGENTNSLVVSGVGG [S1PR1] | 5.24
124 | YNYLLNQDKHAFLLPWFYL [NCKAP1] | 8.38
125 | YNYLSPL [FAM104B] | 2.29
126 | YPAALPGGGGIKRPESPGCPRRDANHPVLSTGPSSLFHPHFC [E2F7] | 6.7
127 | YPAHLASLFSF [ECD] | 2.85
128 | YPALLPSDGHPSRGLSHTVPLRSA [CTDSP2] | 9.24
129 | YPCTISPSSFLGQPGPALVCGDWRDQERVWRPPEGCCLPGLQ [MLST8] | 5.76
130 | YPDPHRCCDLFVLSTVE [FGF14] | 9.33
